In patent publication US20140294898A1 (published 2014):
Positions of bridges follow the written chain, without caps; N, C: chain ends. Non-standard residues stand in square brackets, D forms with d. Bta = N[C@@H](Cc1csc2ccccc12)C(=O)O; NMeNle = CCCC[C@H](NC)C(=O)O; dNle = CCCC[C@@H](N)C(=O)O; NMeS = CN[C@@H](CO)C(=O)O; NMeA = CN[C@@H](C)C(=O)O; Sar = CNCC(=O)O

target: T1, hPDL1(19-239)-TVMV-His (human, UniProt Q9NZQ7 19-239); test: HTRF competition, PD-1-Ig (20 nM) binding to human PD-L1-His (10 nM)
T1 construct: The construct name says 19-239, the running text says amino acids 18-239; Expressed in HEK293T cells; also called PD-L1-His; PD-L1-TVMV-His
T1 sequence (Q9NZQ7 other isoform, or with tags, fused parts or gaps limits assumed): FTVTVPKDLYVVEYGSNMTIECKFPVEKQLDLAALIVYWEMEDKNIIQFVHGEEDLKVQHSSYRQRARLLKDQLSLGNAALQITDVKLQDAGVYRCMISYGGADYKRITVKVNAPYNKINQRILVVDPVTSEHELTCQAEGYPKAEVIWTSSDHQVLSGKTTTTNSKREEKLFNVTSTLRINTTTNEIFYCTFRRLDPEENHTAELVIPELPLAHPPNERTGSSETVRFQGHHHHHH
Experimental: All binding studies were performed in an HTRF assay buffer consisting of dPBS supplemented with 0.1% (w/v) bovine serum albumin and 0.05% (v/v) Tween-20. […] PD-L1 fusion proteins from either human, cynomologous macaques, or mouse were used. HTRF detection was achieved using europium crypate-labeled anti-Ig monoclonal antibody (1 nM final) and allophycocyanin (APC) labeled anti-His monoclonal antibody (20 nM final). Antibodies were diluted in HTRF detection buffer and 5 μl was dispensed on top of binding reaction. The reaction was allowed to equilibrate for 30 minutes and signal (665 nm/620 nm ratio) was obtained using an EnVision fluorometer. […]
HTRF Experiments were performed essentially as outlined supra. Variant macrocyclic peptides were created as outlined herein.

Binder	IC50
{CH2CO}-F[NMeA]NPHL[Sar]WSW[dNle][NMeNle]RCG-NH2 (thioether N-14; SMILES CCCC[C@H]1NC(=O)[C@H](Cc2c[nH]c3ccccc23)NC(=O)[C@H](CO)NC(=O)[C@H](Cc2c[nH]c3ccccc23)NC(=O)CN(C)C(=O)[C@H](CC(C)C)NC(=O)[C@H](Cc2c[nH]cn2)NC(=O)[C@@H]2CCCN2C(=O)[C@H](CC(N)=O)NC(=O)[C@H](C)N(C)C(=O)[C@H](Cc2ccccc2)NC(=O)CSC[C@@H](C(=O)NCC(N)=O)NC(=O)[C@H](CCCNC(=N)N)NC(=O)[C@H](CCCC)N(C)C1=O, macrocyclic peptide cyclized via the ClAc moiety with the downstream cysteine) [Compound No. 70]	8680 nM
{CH2CO}-F[NMeA]NPHL[NMeS]WSW[NMeNle][NMeNle]RCG-NH2 (thioether N-14; SMILES CCCC[C@H]1C(=O)N(C)[C@@H](CCCC)C(=O)N[C@@H](CCCNC(=N)N)C(=O)N[C@H](C(=O)NCC(N)=O)CSCC(=O)N[C@@H](Cc2ccccc2)C(=O)N(C)[C@@H](C)C(=O)N[C@@H](CC(N)=O)C(=O)N2CCC[C@H]2C(=O)N[C@@H](Cc2c[nH]cn2)C(=O)N[C@@H](CC(C)C)C(=O)N(C)[C@@H](CO)C(=O)N[C@@H](Cc2c[nH]c3ccccc23)C(=O)N[C@@H](CO)C(=O)N[C@@H](Cc2c[nH]c3ccccc23)C(=O)N1C, macrocyclic peptide cyclized via the ClAc moiety with the downstream cysteine) [Compound No. 56]	13 nM
{CH2CO}-F[NMeA]NPHL[Sar]WSI[NMeNle][NMeNle]RCG-NH2 (thioether N-14; SMILES CCCC[C@H]1C(=O)N(C)[C@@H](CCCC)C(=O)N[C@@H](CCCNC(=N)N)C(=O)N[C@H](C(=O)NCC(N)=O)CSCC(=O)N[C@@H](Cc2ccccc2)C(=O)N(C)[C@@H](C)C(=O)N[C@@H](CC(N)=O)C(=O)N2CCC[C@H]2C(=O)N[C@@H](Cc2c[nH]cn2)C(=O)N[C@@H](CC(C)C)C(=O)N(C)CC(=O)N[C@@H](Cc2c[nH]c3ccccc23)C(=O)N[C@@H](CO)C(=O)N[C@@H]([C@@H](C)CC)C(=O)N1C, macrocyclic peptide cyclized via the ClAc moiety with the downstream cysteine) [Compound No. 62]	475 nM
{CH2CO}-F[NMeA]NPHD[Sar]WSW[NMeNle][NMeNle]RCG-NH2 (thioether N-14; SMILES CCCC[C@H]1C(=O)N(C)[C@@H](CCCC)C(=O)N[C@@H](CCCNC(=N)N)C(=O)N[C@H](C(=O)NCC(N)=O)CSCC(=O)N[C@@H](Cc2ccccc2)C(=O)N(C)[C@@H](C)C(=O)N[C@@H](CC(N)=O)C(=O)N2CCC[C@H]2C(=O)N[C@@H](Cc2c[nH]cn2)C(=O)N[C@@H](CC(=O)O)C(=O)N(C)CC(=O)N[C@@H](Cc2c[nH]c3ccccc23)C(=O)N[C@@H](CO)C(=O)N[C@@H](Cc2c[nH]c3ccccc23)C(=O)N1C, macrocyclic peptide cyclized via the ClAc moiety with the downstream cysteine) [Compound No. 51]	23 nM
{CH2CO}-F[NMeA]NPHLPWSW[NMeNle][NMeNle]RCG-NH2 (thioether N-14; SMILES CCCC[C@H]1C(=O)N(C)[C@@H](CCCC)C(=O)N[C@@H](CCCNC(=N)N)C(=O)N[C@H](C(=O)NCC(N)=O)CSCC(=O)N[C@@H](Cc2ccccc2)C(=O)N(C)[C@@H](C)C(=O)N[C@@H](CC(N)=O)C(=O)N2CCC[C@H]2C(=O)N[C@@H](Cc2c[nH]cn2)C(=O)N[C@@H](CC(C)C)C(=O)N2CCC[C@H]2C(=O)N[C@@H](Cc2c[nH]c3ccccc23)C(=O)N[C@@H](CO)C(=O)N[C@@H](Cc2c[nH]c3ccccc23)C(=O)N1C, macrocyclic peptide cyclized via the ClAc moiety with the downstream cysteine) [Compound No. 55]	4 nM
{CH2CO}-F[NMeA]NPHL[Sar]WSL[NMeNle][NMeNle]RCG-NH2 (thioether N-14; SMILES CCCC[C@H]1C(=O)N(C)[C@@H](CCCC)C(=O)N[C@@H](CCCNC(=N)N)C(=O)N[C@H](C(=O)NCC(N)=O)CSCC(=O)N[C@@H](Cc2ccccc2)C(=O)N(C)[C@@H](C)C(=O)N[C@@H](CC(N)=O)C(=O)N2CCC[C@H]2C(=O)N[C@@H](Cc2c[nH]cn2)C(=O)N[C@@H](CC(C)C)C(=O)N(C)CC(=O)N[C@@H](Cc2c[nH]c3ccccc23)C(=O)N[C@@H](CO)C(=O)N[C@@H](CC(C)C)C(=O)N1C, macrocyclic peptide cyclized via the ClAc moiety with the downstream cysteine) [Compound No. 63]	3660 nM
{CH2CO}-F[NMeA]NPHLHWSW[NMeNle][NMeNle]RCG-NH2 (thioether N-14; SMILES CCCC[C@H]1C(=O)N(C)[C@@H](CCCC)C(=O)N[C@@H](CCCNC(=N)N)C(=O)N[C@H](C(=O)NCC(N)=O)CSCC(=O)N[C@@H](Cc2ccccc2)C(=O)N(C)[C@@H](C)C(=O)N[C@@H](CC(N)=O)C(=O)N2CCC[C@H]2C(=O)N[C@@H](Cc2c[nH]cn2)C(=O)N[C@@H](CC(C)C)C(=O)N[C@@H](Cc2c[nH]cn2)C(=O)N[C@@H](Cc2c[nH]c3ccccc23)C(=O)N[C@@H](CO)C(=O)N[C@@H](Cc2c[nH]c3ccccc23)C(=O)N1C, macrocyclic peptide cyclized via the ClAc moiety with the downstream cysteine) [Compound No. 53]	34 nM
{CH2CO}-F[NMeA]NPHL[Sar]WSM[NMeNle][NMeNle]RCG-NH2 (thioether N-14; SMILES CCCC[C@H]1C(=O)N(C)[C@@H](CCCC)C(=O)N[C@@H](CCCNC(=N)N)C(=O)N[C@H](C(=O)NCC(N)=O)CSCC(=O)N[C@@H](Cc2ccccc2)C(=O)N(C)[C@@H](C)C(=O)N[C@@H](CC(N)=O)C(=O)N2CCC[C@H]2C(=O)N[C@@H](Cc2c[nH]cn2)C(=O)N[C@@H](CC(C)C)C(=O)N(C)CC(=O)N[C@@H](Cc2c[nH]c3ccccc23)C(=O)N[C@@H](CO)C(=O)N[C@@H](CCSC)C(=O)N1C, macrocyclic peptide cyclized via the ClAc moiety with the downstream cysteine) [Compound No. 61]	31 nM
{CH2CO}-F[NMeA]NPHLRWSW[NMeNle][NMeNle]RCG-NH2 (thioether N-14; SMILES CCCC[C@H]1C(=O)N(C)[C@@H](CCCC)C(=O)N[C@@H](CCCNC(=N)N)C(=O)N[C@H](C(=O)NCC(N)=O)CSCC(=O)N[C@@H](Cc2ccccc2)C(=O)N(C)[C@@H](C)C(=O)N[C@@H](CC(N)=O)C(=O)N2CCC[C@H]2C(=O)N[C@@H](Cc2c[nH]cn2)C(=O)N[C@@H](CC(C)C)C(=O)N[C@@H](CCCNC(=N)N)C(=O)N[C@@H](Cc2c[nH]c3ccccc23)C(=O)N[C@@H](CO)C(=O)N[C@@H](Cc2c[nH]c3ccccc23)C(=O)N1C, macrocyclic peptide cyclized via the ClAc moiety with the downstream cysteine) [Compound No. 54]	26 nM
{CH2CO}-F[NMeA]NPHL[Sar]WS[Bta][NMeNle][NMeNle]RCG-NH2 (thioether N-14; SMILES CCCC[C@H]1C(=O)N(C)[C@@H](CCCC)C(=O)N[C@@H](CCCNC(=N)N)C(=O)N[C@H](C(=O)NCC(N)=O)CSCC(=O)N[C@@H](Cc2ccccc2)C(=O)N(C)[C@@H](C)C(=O)N[C@@H](CC(N)=O)C(=O)N2CCC[C@H]2C(=O)N[C@@H](Cc2c[nH]cn2)C(=O)N[C@@H](CC(C)C)C(=O)N(C)CC(=O)N[C@@H](Cc2c[nH]c3ccccc23)C(=O)N[C@@H](CO)C(=O)N[C@@H](Cc2csc3ccccc23)C(=O)N1C, macrocyclic peptide cyclized via the ClAc moiety with the downstream cysteine) [Compound No. 64]	7 nM
FANPHLGWSWSXRCG (HELM PEPTIDE1{[O=C(C[*:3])[*:2]].F.[meA].N.P.H.L.[Sar].W.S.W.[meS].[CCCC[C@@H](C(=O)[*:2])N(C)[*:1]].R.C.G.[am]}$PEPTIDE1,PEPTIDE1,1:R3-15:R3$$$V2.0; SMILES CCCC[C@H]1C(=O)N[C@@H](CCCNC(=N)N)C(=O)N[C@H](C(=O)NCC(N)=O)CSCC(=O)N[C@@H](Cc2ccccc2)C(=O)N(C)[C@@H](C)C(=O)N[C@@H](CC(N)=O)C(=O)N2CCC[C@H]2C(=O)N[C@@H](Cc2c[nH]cn2)C(=O)N[C@@H](CC(C)C)C(=O)N(C)CC(=O)N[C@@H](Cc2c[nH]c3ccccc23)C(=O)N[C@@H](CO)C(=O)N[C@@H](Cc2c[nH]c3ccccc23)C(=O)N(C)[C@@H](CO)C(=O)N1C, macrocyclic peptide cyclized via the ClAc moiety with the downstream cysteine) [Compound No. 66]	144 nM
FANPHLGWSWLXRCG (HELM PEPTIDE1{[O=C(C[*:3])[*:2]].F.[meA].N.P.H.L.[Sar].W.S.W.[meL].[CCCC[C@@H](C(=O)[*:2])N(C)[*:1]].R.C.G.[am]}$PEPTIDE1,PEPTIDE1,1:R3-15:R3$$$V2.0; SMILES CCCC[C@H]1C(=O)N[C@@H](CCCNC(=N)N)C(=O)N[C@H](C(=O)NCC(N)=O)CSCC(=O)N[C@@H](Cc2ccccc2)C(=O)N(C)[C@@H](C)C(=O)N[C@@H](CC(N)=O)C(=O)N2CCC[C@H]2C(=O)N[C@@H](Cc2c[nH]cn2)C(=O)N[C@@H](CC(C)C)C(=O)N(C)CC(=O)N[C@@H](Cc2c[nH]c3ccccc23)C(=O)N[C@@H](CO)C(=O)N[C@@H](Cc2c[nH]c3ccccc23)C(=O)N(C)[C@@H](CC(C)C)C(=O)N1C, macrocyclic peptide cyclized via the ClAc moiety with the downstream cysteine) [Compound No. 65]	43 nM
{CH2CO}-F[NMeA]NPHL[Sar]WAW[NMeNle][NMeNle]ACG-NH2 (thioether N-14; SMILES CCCC[C@H]1C(=O)N(C)[C@@H](CCCC)C(=O)N[C@@H](C)C(=O)N[C@H](C(=O)NCC(N)=O)CSCC(=O)N[C@@H](Cc2ccccc2)C(=O)N(C)[C@@H](C)C(=O)N[C@@H](CC(N)=O)C(=O)N2CCC[C@H]2C(=O)N[C@@H](Cc2c[nH]cn2)C(=O)N[C@@H](CC(C)C)C(=O)N(C)CC(=O)N[C@@H](Cc2c[nH]c3ccccc23)C(=O)N[C@@H](C)C(=O)N[C@@H](Cc2c[nH]c3ccccc23)C(=O)N1C, macrocyclic peptide cyclized via the ClAc moiety with the downstream cysteine) [Compound No. 60]	43 nM
FANPHLXWSWXXRCG (N-terminal chloroacetyl (ClAc) on residue 1 cyclized as thioether with Cys14; N-methyl-Ala (mAla) at 2; Dab (2,4-diaminobutyric acid, written X) at 7; N-methyl-norleucine (mNle, written X) at 11 and 12; C-terminal amide (NH2), macrocyclic peptide cyclized via the ClAc moiety with the downstream cysteine) [Compound No. 52]	24 nM
